{"source": "the nanobody polyreactivity screen of Harvey et al. (2022)"}
{"test": "yeast display, Sf9 membrane polyspecificity reagent, FACS + sequencing; frameworks hold sequencing errors", "procedure,_shortened": "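Genes from sorted yeast were amplified by colony PCR, read by MiSeq 2 × 250 sequencing and filtered on CDR length. These cells carried a synthetic nanobody library in Saccharomyces cerevisiae BJ5465 and were sorted by FACS into low and high (top ~1%) gates on anti-HA and streptavidin fluorescence. Polyreactivity is labelled according to the gate of origin.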"}
{"sequence": "QVHLVESGGGLVHAGGSLRLSCAASGSTFYPYAMGWYRQAPGKERELVAAISISGTTYYADSVKGRFTISRDNAKNTVYLQMNCLKPEDTAVYYCAKRAWVRRYPGRVGYNMYYWGQGTQVSVSS", "polyreactivity (PSR sort gate)": "high polyreactivity"}
{"sequence": "QVQLVESGGGLVQAGGSLRLSCAASGRTFRKNAMGWSRQAPGKDRELVAAISASGTSTYYADSVKGRFTISRDNAKNTVYLQLNSLKPEDTAVYYSAARSYGIYDYWGQGTQVTVSS", "polyreactivity (PSR sort gate)": "high polyreactivity"}
{"sequence": "QVQLVESGGGLVQAGGTLRLSCAASGLIFFFYAMGWYRQAPGKERELVAAISDDGVSTDYADSVKGRFTISRDNAKNTVYLQMNSLKPEDTAVYYCAAKTERVYPWFSFGYWGQGTQVTVSS", "polyreactivity (PSR sort gate)": "low polyreactivity"}
{"sequence": "QVQLVESGGCLVQAGGSLRLSSAASGRTFDHYAMGWYRQAPGKERELDAAITSGGSTYYADSVKGRFTISRDNAKNTVYLQMNSLKPEDTAVYYCNKDSSFWGSYIAQVNERDYWGQGTQVTVSS", "polyreactivity (PSR sort gate)": "low polyreactivity"}
{"sequence": "QGQLVESGGGLVQAGGSLRLSCAASGSIFVQNAMGWYRQAPGKEREFVAVINSGDSTNYADSVKGRFTISRDIAKNTVYLQMNSLKADDTAVYYCAVDDVSYYYLRAYNYELSWYGSGLDYWGQGTQVTVSS", "polyreactivity (PSR sort gate)": "low polyreactivity"}
{"sequence": "QVQLVESGGGLVQAGGSLRLSCAASGSTFTFNAMGWYRKAPGKERELVAAISGSDVTTYYADSVKGRFTISRDNAKNSVYLQMNSLKPEDTAVYYCAAESYVTTVTGPHTGDYWGQGTQVTVSS", "polyreactivity (PSR sort gate)": "low polyreactivity"}
{"sequence": "QVQLVESGGGLVQAGGSLRLSCAASGRIFWYYAMGWYRQAPGKERELVATISSGGRTNYADSVKGRCTISRDNAKNTVYLQMNSLKPEDTAVYYCAAKHPISTLYDYWGQGTQVTVSS", "polyreactivity (PSR sort gate)": "high polyreactivity"}
{"sequence": "QVHLVESGGGLVHAGGSLRLSCAASGSTFYYYAMGWYRQAPGKERELVAAIRLRGGGTYADSVKGRFTISRDNAKNTFYLQMNSLKPEDTAVYYCAARVWYHGTQFGYWGQGTQVTVSS", "polyreactivity (PSR sort gate)": "high polyreactivity"}
{"sequence": "QVQLVESGGGLVQAGGSLRLSCAASGLTFLRYAMGWYRQAPGKERELVATISASDGDTYYADSVKGRFTISGDNAKNTVYLQMNSLKPEDTAVYYCAADDIYKYYQYYAFPYYRYDDWGQGTEVTVSS", "polyreactivity (PSR sort gate)": "low polyreactivity"}
{"sequence": "QVQLVESGGGLVQAGGSLRLSCAASGRTFFGYAMGWYRQAPGTERELVAAINWGGASTYYADSVKGRFTISRDNAKNTVYLQMNSLKPEATAVYYCAADSVPSRPTYGRYDYWGQGTQVTVSS", "polyreactivity (PSR sort gate)": "low polyreactivity"}
{"sequence": "QVQLVESGGGLVQAGGSLRLSCAASGRIFYRNAMGWYRQAPGKEREFVAAISSGGSTYYADSVKGRFTISRDNAKNTVYLQMNSLKPEDTAVYYCATRSPERRVYYTYSGLFDYWGQGTQVTVSS", "polyreactivity (PSR sort gate)": "high polyreactivity"}
{"sequence": "QVQLLESGGGLVQAGGSLRLSCAASGSIFYLYAMGWYIQAPGKERELVAVIRRGGSTKYADSVKGRFTISRDNSKNSVYLQMNSLKPEDTAVYDCNVVGYAYGWQYDYWGQGTQVNVSS", "polyreactivity (PSR sort gate)": "high polyreactivity"}
{"sequence": "QVQLVESGGGLVQAGGSLRLSCAASGSTFRPYAMGWYRQAPGKERELVAAISSGDSTYYADSVKGRFTISRDNAKNTVYLQMNSPKREDTAVYYCAKRNYWHRGGGYWGQGTQVTVSS", "polyreactivity (PSR sort gate)": "high polyreactivity"}
{"sequence": "QVQLVESGGGLVQSGGSLRLSCAASGSIFYTNAMGWYRQAPGKERELVAAISYGGTTTYADSVKGRFTISRDNAKNTVYLQMNSQKPEDTAVYYCNADWLYYGYWGYGHIWYDYWGQGTQVTVSS", "polyreactivity (PSR sort gate)": "low polyreactivity"}
{"sequence": "QDQLVESGGGLVQSGGSLRLSCAASGSILWSYAMGWYIQAPGKERELVAANTSGGSTYYADSVKGRFTISRDNAKNTVYLQMNSLKPEDTAVYFCAADRWRDFWFNEEYWGQGTQVTVSS", "polyreactivity (PSR sort gate)": "high polyreactivity"}
{"sequence": "QVQLVESGGGLVQAGGSLRLSCAASGSTFWAYALGWYRHAPGKERELVAAITTGGGRTFYADSVMGRFTISRDNGKNTVYLQLNSLIPEDTAVYYCGAVSQSYRMYYWGQGTQVTVSS", "polyreactivity (PSR sort gate)": "low polyreactivity"}
{"sequence": "QDQLVESGGGLVQAGGILSLSCAASGSTFSYYAMGWYRQAPGTETELVAAISSRGGSTYYADSVKGRFTISRDNAKNPVYLQMNSLNPEDTAVDYCNADHKFRSSVSGDHDYWGQGTQVTVSS", "polyreactivity (PSR sort gate)": "high polyreactivity"}
